Experimental findings from paper PMC6358683 are described below.

The target in experiment [1] is HA of A/New Caledonia/20/1999 (influenza A virus A/New Caledonia/20/1999) (UniProt Q6WG00).
Experiment [2] deals with HA of A/Puerto Rico/8/1934 (influenza A virus A/Puerto Rico/8/1934) (UniProt P03452).
Experiment [3] addresses C05 V110P (human). Put plainly: BLI. In general terms: Biolayer interferometry detects binding as a change in optical thickness at a sensor tip.

In turn, C05 V110P (antibody) returned an HAI, antibody concentration at the endpoint titer; virus A/New Caledonia/20/1999 in experiment [1] of 0.2 µg/mL.

On to C05 V110P-A117E (antibody), for which, in experiment [2], the HAI, antibody concentration at the endpoint titer; virus A/Puerto Rico/8/1934 was over 100 µg/mL. In experiment [1], this substance yielded an HAI, antibody concentration at the endpoint titer; virus A/New Caledonia/20/1999 of 0.2 µg/mL.

With “HA of A/Puerto Rico/8/1934 (from UniProt P03452) (natural protein)”, in experiment [3], the Kd (commonly the constant that tells how readily two partners part at equilibrium) worked out at 2.3 µM.
